The values that follow are results of earlier work, collected in article PMC4291147, “Molecular Basis of Histone Tail Recognition by Human TIP5 PHD Finger and Bromodomain of the Chromatin Remodeling Complex NoRC” (Structure(London, England:1993), 2015).

Where two headings read alike, the source gives them in different places.

Series [1] addresses Histone H3 K14ac peptide (Homo sapiens) (UniProt P68431). In words: ITC. Background: Isothermal titration calorimetry measures the heat released or taken up as one component is titrated into another.
The target is the same in series [2]. In words: STD-NMR.
Series [3] has the same target.

Chain of PCAF BRD (Q92831 723-827): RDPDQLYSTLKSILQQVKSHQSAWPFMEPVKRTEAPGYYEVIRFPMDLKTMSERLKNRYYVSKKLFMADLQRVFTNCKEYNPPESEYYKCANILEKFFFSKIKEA
Chain of PCAF bromodomain (Q92831 720-830): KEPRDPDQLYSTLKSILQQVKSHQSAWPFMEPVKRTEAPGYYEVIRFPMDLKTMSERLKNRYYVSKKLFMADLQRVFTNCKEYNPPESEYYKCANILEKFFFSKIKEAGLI
Chain of SMARCA2 BRD (P51531 1378-1506): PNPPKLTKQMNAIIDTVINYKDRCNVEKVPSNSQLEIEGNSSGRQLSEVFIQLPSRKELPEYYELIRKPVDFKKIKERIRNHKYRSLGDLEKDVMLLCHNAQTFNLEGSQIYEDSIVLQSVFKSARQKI
Chain of SMARCA4 BRD (P51532 1453-1564): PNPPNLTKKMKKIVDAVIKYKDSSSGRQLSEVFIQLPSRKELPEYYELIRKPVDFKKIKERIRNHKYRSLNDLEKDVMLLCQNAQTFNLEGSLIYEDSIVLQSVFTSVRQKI
Chain of SMARCA2 bromodomain (P51531 1375-1509): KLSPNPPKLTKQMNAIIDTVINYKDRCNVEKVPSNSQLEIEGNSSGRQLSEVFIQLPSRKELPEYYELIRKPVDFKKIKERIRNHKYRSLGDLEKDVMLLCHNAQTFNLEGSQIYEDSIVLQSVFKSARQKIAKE
Chain of SMARCA4 bromodomain (P51532 1450-1567): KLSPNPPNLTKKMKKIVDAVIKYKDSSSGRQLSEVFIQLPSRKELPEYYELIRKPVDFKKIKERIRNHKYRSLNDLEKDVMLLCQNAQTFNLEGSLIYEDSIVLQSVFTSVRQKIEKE
Chain of PB1 BRD2 (Q86U86 177-287): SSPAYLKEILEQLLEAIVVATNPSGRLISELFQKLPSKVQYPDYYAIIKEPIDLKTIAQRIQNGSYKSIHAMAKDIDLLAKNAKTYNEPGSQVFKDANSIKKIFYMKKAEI
Chain of PB1 BRD 2 (Q86U86 177-287): as above

Turning to PCAF bromodomain (from UniProt Q92831), the Kd – broadly, a measure of binding affinity in units of concentration – was 188 µM in series [1] and 128 µM in series [2].
On to PCAF BRD (from UniProt Q92831), for which the Kd in series [1] was 188 µM; in series [2] it was 128 µM.
Regarding PB1 BRD2 (from UniProt Q86U86), in series [3], the Kd was 500 µM.
As to “SMARCA2 bromodomain (from UniProt P51531)”, the Kd in series [1] is 285 µM.
Regarding SMARCA2 BRD (from UniProt P51531), in series [1], the Kd was 285 µM.
SMARCA4 BRD (from UniProt P51532): the Kd in series [2] was 1200 µM.
Regarding “SMARCA4 bromodomain (from UniProt P51532)”, the Kd in series [2] was 1200 µM.
In the case of PB1 BRD 2 (from UniProt Q86U86), the Kd in series [2] is 500 µM.
